Reference: the RNAGym collection of RNA variant scans (doi:10.1073/pnas.2313332121)

B1: TPR t1 (parent)
chain: GACCAAUCUGCCCUCAGAGCUCGAGAACAUCUUCGGAUGCAGAGGAGGCAGGCUUCGGUGGCGCGAUAGCGCCAACGUCCUCAACCUCCAAUGCAUCCCACCACAUGAUGAUGCCUGAAGAGCCUUGGUUUUUUG

Variants of: B1
Experiment: polymerase ribozyme fitness, log enrichment relative to wild type (log ratio); higher = more active; in vitro selection for triplet polymerase activity
Summary of the method: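 In triplicate, a single round of in vitro selection was run on each mutant library, PCR-built and transcribed, covering one subunit of a heterodimeric triplet polymerase ribozyme. Frozen incubation at −7 °C followed annealing with a biotinylated primer, partner subunit and triplets, and extended constructs were then gel-excised, streptavidin-captured and taken through RT-PCR. Fitness is the logarithm of genotype enrichment over wild-type enrichment, from inverse-variance-weighted replicate averages of Illumina-sequenced inputs and outputs. […] only genotypes with ≥10 input reads and ≥1 read per output were kept.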
With G39U A68G C123U U133A the “polymerase ribozyme fitness (log ratio)” value was -2.96. In the case of C40U G110A, the “polymerase ribozyme fitness (log ratio)” value is reported as -1.7. With C40U G110C the “polymerase ribozyme fitness (log ratio)” value was -4.3. In the case of C40A A46U C79G C104U, the “polymerase ribozyme fitness (log ratio)” value is reported as -6.75. With C40U G135U the “polymerase ribozyme fitness (log ratio)” value was -1.59. For G39A G128A, the “polymerase ribozyme fitness (log ratio)” value was -2.58. In the case of G39U C56U C73U, the “polymerase ribozyme fitness (log ratio)” value is reported as -1.4. With C40U G63U the “polymerase ribozyme fitness (log ratio)” value was -1.68. In the case of C40U G63A, the “polymerase ribozyme fitness (log ratio)” value is reported as -1.95. For C40U C73U A75C, the “polymerase ribozyme fitness (log ratio)” value was -0.514. With C40U U87A the “polymerase ribozyme fitness (log ratio)” value was -0.311. With C40A U78C U92A C115U the “polymerase ribozyme fitness (log ratio)” value was -4.02. For A41C C88U U92C C104U A111C U125G U132C, the “polymerase ribozyme fitness (log ratio)” value was -4.35. For C40A C124U, the “polymerase ribozyme fitness (log ratio)” value was 0.897. For G39U C70U A103C C114U A119U G120A U130A, the “polymerase ribozyme fitness (log ratio)” value was -5.71. In the case of C40U G113U, the “polymerase ribozyme fitness (log ratio)” value is reported as -2.53. For C40U A41C G48U C56U G58C, the “polymerase ribozyme fitness (log ratio)” value was -1.43. In the case of G39U C123G, the “polymerase ribozyme fitness (log ratio)” value is reported as 0.0216. In the case of G39U C123U, the “polymerase ribozyme fitness (log ratio)” value is reported as 0.845. For C40U C64U A90C, the “polymerase ribozyme fitness (log ratio)” value was -1.97. For C40A G48A C86A, the “polymerase ribozyme fitness (log ratio)” value was -2.18. In the case of G39U C49A C72A G93C A95C C115U, the “polymerase ribozyme fitness (log ratio)” value is reported as -5.1. With G39C G48A C49U C89A the “polymerase ribozyme fitness (log ratio)” value was -4.19. For G39A A46U U106A, the “polymerase ribozyme fitness (log ratio)” value was -2.02. With C40U C101U the “polymerase ribozyme fitness (log ratio)” value was 0.317. With C40U C70A G128A the “polymerase ribozyme fitness (log ratio)” value was -4.95. In the case of G39A C94U, the “polymerase ribozyme fitness (log ratio)” value is reported as -0.565. With G39U C49G C64U G117C the “polymerase ribozyme fitness (log ratio)” value was -4.42. For C40U G52C G117C, the “polymerase ribozyme fitness (log ratio)” value was -6.09. In the case of A41C C80U C115U, the “polymerase ribozyme fitness (log ratio)” value is reported as -3.59. In the case of C40A G42A C56G C72A A84C, the “polymerase ribozyme fitness (log ratio)” value is reported as -4.52. With G39C C86U the “polymerase ribozyme fitness (log ratio)” value was -2.09. In the case of G39A G45C, the “polymerase ribozyme fitness (log ratio)” value is reported as -2.32. For G39A A46U, the “polymerase ribozyme fitness (log ratio)” value was -1.28. With G39C A43C G69U C82G U96C the “polymerase ribozyme fitness (log ratio)” value was -3.31. For G39U G113A, the “polymerase ribozyme fitness (log ratio)” value was -1.25. For C40A G61C A118U U130G, the “polymerase ribozyme fitness (log ratio)” value was -3.57. For C40U G48A C53A G113C, the “polymerase ribozyme fitness (log ratio)” value was -2.73. For G39A G110U, the “polymerase ribozyme fitness (log ratio)” value was -2.32. With G39U C86G C104A the “polymerase ribozyme fitness (log ratio)” value was -4.01. In the case of G39U G44U C53G C62A C98U U112A U129C U130A, the “polymerase ribozyme fitness (log ratio)” value is reported as -5.78. In the case of C40A G47A G63U, the “polymerase ribozyme fitness (log ratio)” value is reported as -4.41. For C40A C89G C94A, the “polymerase ribozyme fitness (log ratio)” value was -4.16. For C40U G61U, the “polymerase ribozyme fitness (log ratio)” value was -0.267. For U38G G61U U116C, the “polymerase ribozyme fitness (log ratio)” value was -1.78. With C40U G52A G60U A91U U109A the “polymerase ribozyme fitness (log ratio)” value was -6.64. In the case of G39A C64U A90G G135U, the “polymerase ribozyme fitness (log ratio)” value is reported as -1.27. In the case of C40A A50G G71U C85U, the “polymerase ribozyme fitness (log ratio)” value is reported as -2.76. In the case of U38C G45A G113C U125C, the “polymerase ribozyme fitness (log ratio)” value is reported as -3.38. With C40U C64U C73G G122A the “polymerase ribozyme fitness (log ratio)” value was -5.15. In the case of C40U A43C G93C C115A, the “polymerase ribozyme fitness (log ratio)” value is reported as -2.74. In the case of U38G A43U G48U C88G, the “polymerase ribozyme fitness (log ratio)” value is reported as -5.48. With U38G A46U G61A U87A the “polymerase ribozyme fitness (log ratio)” value was -0.463. For C40G A43U U112G A119U U126A, the “polymerase ribozyme fitness (log ratio)” value was -4.57. In the case of C40G A74G C86A, the “polymerase ribozyme fitness (log ratio)” value is reported as -1.94. For G39U C40U G42A C56U, the “polymerase ribozyme fitness (log ratio)” value was -2.23. With C40U C73A the “polymerase ribozyme fitness (log ratio)” value was -0.621. With G39U A68G C70U A121U the “polymerase ribozyme fitness (log ratio)” value was -2.23. In the case of G39U G52U, the “polymerase ribozyme fitness (log ratio)” value is reported as -1.9. With G39U G52A the “polymerase ribozyme fitness (log ratio)” value was -1.4. For A41C C72G, the “polymerase ribozyme fitness (log ratio)” value was -1.5. For G39A G45C G60U G69U C82U, the “polymerase ribozyme fitness (log ratio)” value was -5.66. In the case of G39C U54G C70A, the “polymerase ribozyme fitness (log ratio)” value is reported as -3.74. For C40G G63U C80G C123U, the “polymerase ribozyme fitness (log ratio)” value was -6.43. For G39A G71C, the “polymerase ribozyme fitness (log ratio)” value was -2.63. For A41C G42U G71A U81C, the “polymerase ribozyme fitness (log ratio)” value was -4.72. For C40G C88U G122A, the “polymerase ribozyme fitness (log ratio)” value was -2.03. For G39C U78A, the “polymerase ribozyme fitness (log ratio)” value was -0.87. In the case of G39C C40A, the “polymerase ribozyme fitness (log ratio)” value is reported as -3.01. With C40A A41U G69U G135C the “polymerase ribozyme fitness (log ratio)” value was -0.488. With C40U G52U the “polymerase ribozyme fitness (log ratio)” value was -1.14. For C40A C64U, the “polymerase ribozyme fitness (log ratio)” value was -2.19. With C40A C104U G110A C124U the “polymerase ribozyme fitness (log ratio)” value was -2.31. With A41C G44U U87C the “polymerase ribozyme fitness (log ratio)” value was -1.33. With U38A G113C the “polymerase ribozyme fitness (log ratio)” value was -2.81. With G39A C73U U106A U109C G113A G117A the “polymerase ribozyme fitness (log ratio)” value was -5.45. With G39U G120A the “polymerase ribozyme fitness (log ratio)” value was -0.0767. With G39U C62U the “polymerase ribozyme fitness (log ratio)” value was -1.71. In the case of G39U C49U C97A C124A G127A, the “polymerase ribozyme fitness (log ratio)” value is reported as -5.83. With C40U U92G C98U G113U G117U the “polymerase ribozyme fitness (log ratio)” value was -6.95. For C40U C123U, the “polymerase ribozyme fitness (log ratio)” value was 0.0584. With C40U C123A the “polymerase ribozyme fitness (log ratio)” value was 0.43. With U38G A41U C53G C62A G113A A119C the “polymerase ribozyme fitness (log ratio)” value was -5.91. For U38C A43G C73U G93A, the “polymerase ribozyme fitness (log ratio)” value was -4.56.
